We go through 94 variants from the supplement of paper PMC10567573.

To fix the notation:
B1: YPEL3 (parent)
chain: SKPKTFQAYLDDCHRRYSCAHCRA
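Also: lentivirally expressed fusions sorted by FACS into six bins by GFP to DsRed ratio, PSI derived from sequencing read proportions per bin multiplied by bin number.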

Variants of B1 are the subject of the data set. Description: protein stability index of a GFP-peptide fusion (GPS, HEK-293T) (PSI 1-6); higher = more stable. The conditions noted are these: c terminus: a fixed tail appended.
For SKPKTFQAYLDDCHRRYSCAHCRY [A24Y], the protein stability index came out at 2.86. As for SKPKTFQAYLDDCHRRYSCAHCRL [A24L], the figure is 1.87. As for SKPKTFQAYLDDCHRRYSCAHCRR [A24R], the figure is 1.71; as for SKPKTFQAYLDDCHRRYSCAHCRT [A24T], 1.54; as for SKPKTFQAYLDDCHRRYSCAHCRW [A24W], 2.39. Take SKPKTFQAYLDDCHRRYSCAHCRG [A24G]: the protein stability index worked out at 2.32.

For the variant SKPKTFQAYLDDCHRRYSCAHCRS [A24S], the protein stability index is 1.54. As for SKPKTFQAYLDDCHRRYSCAHCRF [A24F], the figure is 2.59; as for SKPKTFQAYLDDCHRRYSCAHCRI [A24I], 2. As for SKPKTFQAYLDDCHRRYSCAHCRC [A24C], the figure is 1.83; as for SKPKTFQAYLDDCHRRYSCAHCRE [A24E], 1.71; as for SKPKTFQAYLDDCHRRYSCAHCRM [A24M], 2.07.

SKPKTFQAYLDDCHRRYSCAHCRD [A24D]: the protein stability index was 1.73. As for SKPKTFQAYLDDCHRRYSCAHCRP [A24P], the figure is 2.24; as for SKPKTFQAYLDDCHRRYSCAHCRN [A24N], 2.

As for SKPKTFQAYLDDCHRRYSCAHCRV [A24V], the protein stability index was found to be 1.84.

SKPKTFQAYLDDCHRRYSCAHCRQ [A24Q]: the protein stability index worked out at 2.59. As for SKPKTFQAYLDDCHRRYSCAHCRH [A24H], the figure is 1.85; as for SKPKTFQAYLDDCHRRYSCAHCRK [A24K], 3.42; as for SKPKTFQAYLDDCHRRYSCRHCRA [A20R], 1.72. As for SKPKTFQAYLDDCHRRYSCKHCRA [A20K], the figure is 2.95; as for SKPKTFQAYLDDCHRRYSCEHCRA [A20E], 1.46. Consider SKPKTFQAYLDDCHRRYSCNHCRA [A20N], for which the protein stability index was determined as 2.92. As for SKPKTFQAYLDDCHRRYSCVHCRA [A20V], the figure is 2.02; as for SKPKTFQAYLDDCHRRYSCCHCRA [A20C], 1.31; as for SKPKTFQAYLDDCHRRYSCQHCRA [A20Q], 1.71. With SKPKTFQAYLDDCHRRYSCYHCRA [A20Y], the protein stability index was 2.16. As for SKPKTFQAYLDDCHRRYSCIHCRA [A20I], the figure is 1.89; as for SKPKTFQAYLDDCHRRYSCFHCRA [A20F], 2.22. As for SKPKTFQAYLDDCHRRYSCTHCRA [A20T], the figure is 2.29; as for SKPKTFQAYLDDCHRRYSCLHCRA [A20L], 1.64. SKPKTFQAYLDDCHRRYSCPHCRA [A20P]: the protein stability index worked out at 1.92. As for SKPKTFQAYLDDCHRRYSCSHCRA [A20S], the figure is 1.46.

As for SKPKTFQAYLDDCHRRYSCDHCRA [A20D], the protein stability index worked out at 1.1. As for SKPKTFQAYLDDCHRRYSCHHCRA [A20H], the figure is 2.04.

As to SKPKTFQAYLDDCHRRYSCWHCRA [A20W], the protein stability index came to 3.14. For the variant SKPKTFQAYLDDCHRRYSCADCRA [H21D], the protein stability index was found to be 2.18. As for SKPKTFQAYLDDCHRRYSCARCRA [H21R], the figure is 3.32; as for SKPKTFQAYLDDCHRRYSCAVCRA [H21V], 1.79; as for SKPKTFQAYLDDCHRRYSCAACRA [H21A], 2.06. As for SKPKTFQAYLDDCHRRYSCACCRA [H21C], the figure is 1.83. As to SKPKTFQAYLDDCHRRYSCALCRA [H21L], the protein stability index was 1.74. As for SKPKTFQAYLDDCHRRYSCAYCRA [H21Y], the figure is 1.48; as for SKPKTFQAYLDDCHRRYSCAFCRA [H21F], 1.52; as for SKPKTFQAYLDDCHRRYSCAPCRA [H21P], 1.9. In the case of SKPKTFQAYLDDCHRRYSCAGCRA [H21G], the protein stability index worked out at 1.28.

Take SKPKTFQAYLDDCHRRYSCANCRA [H21N]: the protein stability index came to 1.57.

With SKPKTFQAYLDDCHRRYSCAICRA [H21I], the protein stability index came out at 2.52. As for SKPKTFQAYLDDCHRRYSCASCRA [H21S], the figure is 2.19; as for SKPKTFQAYLDDCHRRYSCAQCRA [H21Q], 2; as for SKPKTFQAYLDDCHRRYSCATCRA [H21T], 2.34. For SKPKTFQAYLDDCHRRYSCAWCRA [H21W], the protein stability index is 1.65. For the variant SKPKTFQAYLDDCHRRYSCAMCRA [H21M], the protein stability index stood at 1.18. On to SKPKTFQAYLDDCHRRYSCAKCRA [H21K], for which the protein stability index was found to be 2.37.

Regarding SKPKTFQAYLDDCHRRYRCAHCRA [S18R], the protein stability index stood at 2.56.

Regarding SKPKTFQAYLDDCHRRYWCAHCRA [S18W], the protein stability index stood at 1.52. As for SKPKTFQAYLDDCHRRYMCAHCRA [S18M], the figure is 2.73; as for SKPKTFQAYLDDCHRRYTCAHCRA [S18T], 2.37; as for SKPKTFQAYLDDCHRRYLCAHCRA [S18L], 2.14. As for SKPKTFQAYLDDCHRRYNCAHCRA [S18N], the figure is 2.06; as for SKPKTFQAYLDDCHRRYPCAHCRA [S18P], 2.15; as for SKPKTFQAYLDDCHRRYYCAHCRA [S18Y], 1.48.

As for SKPKTFQAYLDDCHRRYQCAHCRA [S18Q], the protein stability index is 1.86. As for SKPKTFQAYLDDCHRRYSCAHCCA [R23C], the figure is 1.24.

Regarding SKPKTFQAYLDDCHRRYSCAHCVA [R23V], the protein stability index was 3.34. As for SKPKTFQAYLDDCHRRYSCAHCQA [R23Q], the figure is 1.86. As for SKPKTFQAYLDDCHRRYSCAHCEA [R23E], the figure is 2.09; as for SKPKTFQAYLDDCHRRYSCAHCSA [R23S], 3.52. Turning to SKPKTFQAYLDDCHRRYSCAHCDA [R23D], the protein stability index turned out to be 2.18.

In the case of SKPKTFQAYLDDCHRRYSCAHCAA [R23A], the protein stability index amounted to 3.07. SKPKTFQAYLDDCHRRYSCAHCNA [R23N]: the protein stability index was found to be 2.91. On to SKPKTFQAYLDDCHRRYSCAHCIA [R23I], for which the protein stability index worked out at 3.07. As for SKPKTFQAYLDDCHRRYSCAHCPA [R23P], the figure is 2.11; as for SKPKTFQAYLDDCHRRYSCAHCFA [R23F], 2.61; as for SKPKTFQAYLDDCHRRYSCAHCKA [R23K], 2.03. As for SKPKTFQAYLDDCHRRYSCAHCLA [R23L], the figure is 2.37; as for SKPKTFQAYLDDCHRRYSCAHCGA [R23G], 1.39; as for SKPKTFQAYLDDCHRRYSCAHCWA [R23W], 2.08.

As for SKPKTFQAYLDDCHRRYSCAHCMA [R23M], the protein stability index stood at 2. SKPKTFQAYLDDCHRRYSCAHCHA [R23H]: the protein stability index amounted to 2.59. SKPKTFQAYLDDCHRRYSLAHCRA [C19L]: the protein stability index was 2.08. As for SKPKTFQAYLDDCHRRYSRAHCRA [C19R], the figure is 2.04; as for SKPKTFQAYLDDCHRRYSIAHCRA [C19I], 2.33; as for SKPKTFQAYLDDCHRRYSAAHCRA [C19A], 2.51.

Turning to SKPKTFQAYLDDCHRRYSYAHCRA [C19Y], the protein stability index was 2.44. Regarding SKPKTFQAYLDDCHRRYSMAHCRA [C19M], the protein stability index was 1.63. For the variant SKPKTFQAYLDDCHRRYSEAHCRA [C19E], the protein stability index stood at 3.18.

With SKPKTFQAYLDDCHRRYSQAHCRA [C19Q], the protein stability index is 2.53. As for SKPKTFQAYLDDCHRRYSWAHCRA [C19W], the figure is 1.66; as for SKPKTFQAYLDDCHRRYSDAHCRA [C19D], 3.27; as for SKPKTFQAYLDDCHRRYSPAHCRA [C19P], 2.85. For the variant SKPKTFQAYLDDCHRRYSSAHCRA [C19S], the protein stability index is 2.87. As to SKPKTFQAYLDDCHRRYSFAHCRA [C19F], the protein stability index is 1.53. As for SKPKTFQAYLDDCHRRYSNAHCRA [C19N], the figure is 3.42.
